The target of this test is human corticotropin-releasing factor 2α (CRF2 α receptor) (human), Q13324. In words: cell-based or functional assay.

Starred links: 1 amine or outer side, 2 acyl side, 3 side chain; linkers in the order of their positions; H or OH if unused. Non-standard residues stand in square brackets, D forms with d. Groups on a side chain read outwards from the residue. No end group written: not given here. *: point of attachment. C18 diacid = O=C(O)CCCCCCCCCCCCCCCCC(=O)*; γGlu = O=C(O)[C@H](CCC(=O)[*:2])N[*:1]; Palmitoyl = CCCCCCCCCCCCCCCC(=O)*; AEEA = NCCOCCOCC(=O)O; Aib = CC(C)(N)C(=O)O

Sequence of human corticotropin-releasing factor 2α (CRF2 α receptor) (human), Q13324 (Q13324 20-411): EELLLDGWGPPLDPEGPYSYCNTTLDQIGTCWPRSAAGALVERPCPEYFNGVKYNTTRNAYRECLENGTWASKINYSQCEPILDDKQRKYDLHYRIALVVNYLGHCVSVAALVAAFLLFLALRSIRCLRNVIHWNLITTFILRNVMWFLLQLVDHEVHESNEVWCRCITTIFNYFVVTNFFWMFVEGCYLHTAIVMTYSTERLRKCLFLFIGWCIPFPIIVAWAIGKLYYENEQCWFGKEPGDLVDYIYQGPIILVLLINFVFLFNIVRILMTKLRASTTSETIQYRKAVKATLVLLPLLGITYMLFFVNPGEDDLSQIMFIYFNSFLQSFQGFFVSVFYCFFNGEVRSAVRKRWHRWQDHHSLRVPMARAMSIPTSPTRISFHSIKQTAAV

B1: SEQ ID NO: 162 (peptide)
peptide: Ac-IVLSLD[dV]PIELK([AEEA-AEEA-γGlu-C18 diacid])QILLEQERQK[Aib]QREQAEKNKQILEQV-NH2
SMILES: CC[C@H](C)[C@H](NC(C)=O)C(=O)N[C@H](C(=O)N[C@@H](CC(C)C)C(=O)N[C@@H](CO)C(=O)N[C@@H](CC(C)C)C(=O)N[C@@H](CC(=O)O)C(=O)N[C@@H](C(=O)N1CCC[C@H]1C(=O)N[C@H](C(=O)N[C@@H](CCC(=O)O)C(=O)N[C@@H](CC(C)C)C(=O)N[C@@H](CCCCNC(=O)COCCOCCNC(=O)COCCOCCNC(=O)CC[C@H](NC(=O)CCCCCCCCCCCCCCCCC(=O)O)C(=O)O)C(=O)N[C@@H](CCC(N)=O)C(=O)N[C@H](C(=O)N[C@@H](CC(C)C)C(=O)N[C@@H](CC(C)C)C(=O)N[C@@H](CCC(=O)O)C(=O)N[C@@H](CCC(N)=O)C(=O)N[C@@H](CCC(=O)O)C(=O)N[C@@H](CCCNC(=N)N)C(=O)N[C@@H](CCC(N)=O)C(=O)N[C@@H](CCCCN)C(=O)NC(C)(C)C(=O)N[C@@H](CCC(N)=O)C(=O)N[C@@H](CCCNC(=N)N)C(=O)N[C@@H](CCC(=O)O)C(=O)N[C@@H](CCC(N)=O)C(=O)N[C@@H](C)C(=O)N[C@@H](CCC(=O)O)C(=O)N[C@@H](CCCCN)C(=O)N[C@@H](CC(N)=O)C(=O)N[C@@H](CCCCN)C(=O)N[C@@H](CCC(N)=O)C(=O)N[C@H](C(=O)N[C@@H](CC(C)C)C(=O)N[C@@H](CCC(=O)O)C(=O)N[C@@H](CCC(N)=O)C(=O)N[C@H](C(N)=O)C(C)C)[C@@H](C)CC)[C@@H](C)CC)[C@@H](C)CC)C(C)C)C(C)C
The molecule B1 gave an EC50 [nM], 0% HSA of 2 nM and an EC50 [nM], 0.1% HSA of 30.5 nM. Ac-IVLSLD[dV]PIHLK([AEEA-AEEA-γGlu-C18 diacid])QILLEQERQK[Aib]QREQAEKNKQILEQV-NH2 [SEQ ID NO: 163] yielded an EC50 [nM], 0% HSA of 0.24 nM and an EC50 [nM], 0.1% HSA of 3.91 nM.

B2: SEQ ID NO: 165 (peptide)
peptide: Ac-IVLSLD[dV]PIKLK([AEEA-AEEA-γGlu-C18 diacid])QILLEQARQK[Aib]QREQAEKNEQILEQV-NH2
SMILES: CC[C@H](C)[C@H](NC(C)=O)C(=O)N[C@H](C(=O)N[C@@H](CC(C)C)C(=O)N[C@@H](CO)C(=O)N[C@@H](CC(C)C)C(=O)N[C@@H](CC(=O)O)C(=O)N[C@@H](C(=O)N1CCC[C@H]1C(=O)N[C@H](C(=O)N[C@@H](CCCCN)C(=O)N[C@@H](CC(C)C)C(=O)N[C@@H](CCCCNC(=O)COCCOCCNC(=O)COCCOCCNC(=O)CC[C@H](NC(=O)CCCCCCCCCCCCCCCCC(=O)O)C(=O)O)C(=O)N[C@@H](CCC(N)=O)C(=O)N[C@H](C(=O)N[C@@H](CC(C)C)C(=O)N[C@@H](CC(C)C)C(=O)N[C@@H](CCC(=O)O)C(=O)N[C@@H](CCC(N)=O)C(=O)N[C@@H](C)C(=O)N[C@@H](CCCNC(=N)N)C(=O)N[C@@H](CCC(N)=O)C(=O)N[C@@H](CCCCN)C(=O)NC(C)(C)C(=O)N[C@@H](CCC(N)=O)C(=O)N[C@@H](CCCNC(=N)N)C(=O)N[C@@H](CCC(=O)O)C(=O)N[C@@H](CCC(N)=O)C(=O)N[C@@H](C)C(=O)N[C@@H](CCC(=O)O)C(=O)N[C@@H](CCCCN)C(=O)N[C@@H](CC(N)=O)C(=O)N[C@@H](CCC(=O)O)C(=O)N[C@@H](CCC(N)=O)C(=O)N[C@H](C(=O)N[C@@H](CC(C)C)C(=O)N[C@@H](CCC(=O)O)C(=O)N[C@@H](CCC(N)=O)C(=O)N[C@H](C(N)=O)C(C)C)[C@@H](C)CC)[C@@H](C)CC)[C@@H](C)CC)C(C)C)C(C)C
In turn, B2 yielded an EC50 [nM], 0% HSA of 0.28 nM and an EC50 [nM], 0.1% HSA of 5.06 nM.

B3: SEQ ID NO: 164 (peptide)
peptide: Ac-IVLSLD[dV]PIGLK([AEEA-AEEA-γGlu-C18 diacid])QILLEQERQK[Aib]QREQAEKNKQILEQV-NH2
SMILES: CC[C@H](C)[C@H](NC(C)=O)C(=O)N[C@H](C(=O)N[C@@H](CC(C)C)C(=O)N[C@@H](CO)C(=O)N[C@@H](CC(C)C)C(=O)N[C@@H](CC(=O)O)C(=O)N[C@@H](C(=O)N1CCC[C@H]1C(=O)N[C@H](C(=O)NCC(=O)N[C@@H](CC(C)C)C(=O)N[C@@H](CCCCNC(=O)COCCOCCNC(=O)COCCOCCNC(=O)CC[C@H](NC(=O)CCCCCCCCCCCCCCCCC(=O)O)C(=O)O)C(=O)N[C@@H](CCC(N)=O)C(=O)N[C@H](C(=O)N[C@@H](CC(C)C)C(=O)N[C@@H](CC(C)C)C(=O)N[C@@H](CCC(=O)O)C(=O)N[C@@H](CCC(N)=O)C(=O)N[C@@H](CCC(=O)O)C(=O)N[C@@H](CCCNC(=N)N)C(=O)N[C@@H](CCC(N)=O)C(=O)N[C@@H](CCCCN)C(=O)NC(C)(C)C(=O)N[C@@H](CCC(N)=O)C(=O)N[C@@H](CCCNC(=N)N)C(=O)N[C@@H](CCC(=O)O)C(=O)N[C@@H](CCC(N)=O)C(=O)N[C@@H](C)C(=O)N[C@@H](CCC(=O)O)C(=O)N[C@@H](CCCCN)C(=O)N[C@@H](CC(N)=O)C(=O)N[C@@H](CCCCN)C(=O)N[C@@H](CCC(N)=O)C(=O)N[C@H](C(=O)N[C@@H](CC(C)C)C(=O)N[C@@H](CCC(=O)O)C(=O)N[C@@H](CCC(N)=O)C(=O)N[C@H](C(N)=O)C(C)C)[C@@H](C)CC)[C@@H](C)CC)[C@@H](C)CC)C(C)C)C(C)C
The molecule B3 yielded an EC50 [nM], 0% HSA of 0.69 nM and an EC50 [nM], 0.1% HSA of 10.1 nM.

B4: SEQ ID NO: 166 (peptide)
peptide: Ac-IVLSLD[dV]PIKLK([AEEA-AEEA-γGlu-C18 diacid])QILLEQERQK[Aib]QREQAEKNEQILEQV-NH2
SMILES: CC[C@H](C)[C@H](NC(C)=O)C(=O)N[C@H](C(=O)N[C@@H](CC(C)C)C(=O)N[C@@H](CO)C(=O)N[C@@H](CC(C)C)C(=O)N[C@@H](CC(=O)O)C(=O)N[C@@H](C(=O)N1CCC[C@H]1C(=O)N[C@H](C(=O)N[C@@H](CCCCN)C(=O)N[C@@H](CC(C)C)C(=O)N[C@@H](CCCCNC(=O)COCCOCCNC(=O)COCCOCCNC(=O)CC[C@H](NC(=O)CCCCCCCCCCCCCCCCC(=O)O)C(=O)O)C(=O)N[C@@H](CCC(N)=O)C(=O)N[C@H](C(=O)N[C@@H](CC(C)C)C(=O)N[C@@H](CC(C)C)C(=O)N[C@@H](CCC(=O)O)C(=O)N[C@@H](CCC(N)=O)C(=O)N[C@@H](CCC(=O)O)C(=O)N[C@@H](CCCNC(=N)N)C(=O)N[C@@H](CCC(N)=O)C(=O)N[C@@H](CCCCN)C(=O)NC(C)(C)C(=O)N[C@@H](CCC(N)=O)C(=O)N[C@@H](CCCNC(=N)N)C(=O)N[C@@H](CCC(=O)O)C(=O)N[C@@H](CCC(N)=O)C(=O)N[C@@H](C)C(=O)N[C@@H](CCC(=O)O)C(=O)N[C@@H](CCCCN)C(=O)N[C@@H](CC(N)=O)C(=O)N[C@@H](CCC(=O)O)C(=O)N[C@@H](CCC(N)=O)C(=O)N[C@H](C(=O)N[C@@H](CC(C)C)C(=O)N[C@@H](CCC(=O)O)C(=O)N[C@@H](CCC(N)=O)C(=O)N[C@H](C(N)=O)C(C)C)[C@@H](C)CC)[C@@H](C)CC)[C@@H](C)CC)C(C)C)C(C)C
Take B4: the EC50 [nM], 0% HSA amounted to 0.9 nM and the EC50 [nM], 0.1% HSA turned out to be 14 nM.

B5: SEQ ID NO: 167 (peptide)
peptide: Ac-IVLSLD[dV]PIGLK([AEEA-AEEA-γGlu-C18 diacid])QILLEQERQK[Aib]QREQAEKNEQILEQV-NH2
SMILES: CC[C@H](C)[C@H](NC(C)=O)C(=O)N[C@H](C(=O)N[C@@H](CC(C)C)C(=O)N[C@@H](CO)C(=O)N[C@@H](CC(C)C)C(=O)N[C@@H](CC(=O)O)C(=O)N[C@@H](C(=O)N1CCC[C@H]1C(=O)N[C@H](C(=O)NCC(=O)N[C@@H](CC(C)C)C(=O)N[C@@H](CCCCNC(=O)COCCOCCNC(=O)COCCOCCNC(=O)CC[C@H](NC(=O)CCCCCCCCCCCCCCCCC(=O)O)C(=O)O)C(=O)N[C@@H](CCC(N)=O)C(=O)N[C@H](C(=O)N[C@@H](CC(C)C)C(=O)N[C@@H](CC(C)C)C(=O)N[C@@H](CCC(=O)O)C(=O)N[C@@H](CCC(N)=O)C(=O)N[C@@H](CCC(=O)O)C(=O)N[C@@H](CCCNC(=N)N)C(=O)N[C@@H](CCC(N)=O)C(=O)N[C@@H](CCCCN)C(=O)NC(C)(C)C(=O)N[C@@H](CCC(N)=O)C(=O)N[C@@H](CCCNC(=N)N)C(=O)N[C@@H](CCC(=O)O)C(=O)N[C@@H](CCC(N)=O)C(=O)N[C@@H](C)C(=O)N[C@@H](CCC(=O)O)C(=O)N[C@@H](CCCCN)C(=O)N[C@@H](CC(N)=O)C(=O)N[C@@H](CCC(=O)O)C(=O)N[C@@H](CCC(N)=O)C(=O)N[C@H](C(=O)N[C@@H](CC(C)C)C(=O)N[C@@H](CCC(=O)O)C(=O)N[C@@H](CCC(N)=O)C(=O)N[C@H](C(N)=O)C(C)C)[C@@H](C)CC)[C@@H](C)CC)[C@@H](C)CC)C(C)C)C(C)C
Take B5: the EC50 [nM], 0% HSA was 3.95 nM and the EC50 [nM], 0.1% HSA came to 74.4 nM.

B6: SEQ ID NO: 19 (peptide)
peptide: IVLSLD[dV]PTKLK([γGlu-Palmitoyl])QKLLKQERQR[Aib]EREQAEKNKRILERV-NH2
modifications: N-terminus assumed
SMILES: CCCCCCCCCCCCCCCC(=O)N[C@@H](CCC(=O)NCCCC[C@H](NC(=O)[C@H](CC(C)C)NC(=O)[C@H](CCCCN)NC(=O)[C@@H](NC(=O)[C@@H]1CCCN1C(=O)[C@H](NC(=O)[C@H](CC(=O)O)NC(=O)[C@H](CC(C)C)NC(=O)[C@H](CO)NC(=O)[C@H](CC(C)C)NC(=O)[C@@H](NC(=O)[C@@H](N)[C@@H](C)CC)C(C)C)C(C)C)[C@@H](C)O)C(=O)N[C@@H](CCC(N)=O)C(=O)N[C@@H](CCCCN)C(=O)N[C@@H](CC(C)C)C(=O)N[C@@H](CC(C)C)C(=O)N[C@@H](CCCCN)C(=O)N[C@@H](CCC(N)=O)C(=O)N[C@@H](CCC(=O)O)C(=O)N[C@@H](CCCNC(=N)N)C(=O)N[C@@H](CCC(N)=O)C(=O)N[C@@H](CCCNC(=N)N)C(=O)NC(C)(C)C(=O)N[C@@H](CCC(=O)O)C(=O)N[C@@H](CCCNC(=N)N)C(=O)N[C@@H](CCC(=O)O)C(=O)N[C@@H](CCC(N)=O)C(=O)N[C@@H](C)C(=O)N[C@@H](CCC(=O)O)C(=O)N[C@@H](CCCCN)C(=O)N[C@@H](CC(N)=O)C(=O)N[C@@H](CCCCN)C(=O)N[C@@H](CCCNC(=N)N)C(=O)N[C@H](C(=O)N[C@@H](CC(C)C)C(=O)N[C@@H](CCC(=O)O)C(=O)N[C@@H](CCCNC(=N)N)C(=O)N[C@H](C(N)=O)C(C)C)[C@@H](C)CC)C(=O)O
For B6, the EC50 [nM], 0% HSA stood at 0.01 nM.

The values above are taken from patent US12679878B2, “CRF2 receptor agonists and their use in therapy” (SANOFI, priority 2020, dated 2026).
